According to US20220389077A1, “ALLOGENEIC CELL COMPOSITIONS AND METHODS OF USE” (Poseida Therapeutics, Inc., priority 2018, published 2022):
“Also recorded” adds a separate entry of the source.

T1: human CD58 (Homo sapiens, UniProt P19256)
T1 construct: expressed in transfected cells; host or cells: K562 (electroporated) or Rat2 (lipofected) cells
T1 sequence (P19256 29-250): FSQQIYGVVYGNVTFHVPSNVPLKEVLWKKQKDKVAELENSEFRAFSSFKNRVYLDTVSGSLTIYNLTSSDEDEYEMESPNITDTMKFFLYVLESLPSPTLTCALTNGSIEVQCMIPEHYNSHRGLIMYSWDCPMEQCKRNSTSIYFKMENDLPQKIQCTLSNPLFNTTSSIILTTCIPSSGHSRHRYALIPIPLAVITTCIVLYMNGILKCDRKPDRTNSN


Assays:
TCRb and b2M = assay: Gene editing (knockout of TCR and MHCI) of Allo CAR-T cells with CSR; format: cell-based, human; conditions: up to 14-day culture; CSR stable or transient
From the text: Pan T cells isolated from healthy donor blood were genetically modified using the piggyBac® DNA modification system in combination with the Cas-CLOVER™ gene-editing system (CC) to produce allogeneic (Allo) CAR-T cells. […] Following EP, all cells were subsequently stimulated with a cocktail of agonist mAbs anti-CD2, anti-CD3 and anti-CD28, and were later selected for genetic modification over the course of up to a 14-day culture period using the selection gene. At the end of the initial culture period, all T cells expressed the CAR, indicating successful selection for genetically-modified cells (data not shown). All samples were performed in duplicate, and data is shown in bar graph where error bars represent standard deviation.

[1] = test system: anti-CD2 activator reagent, anti-CD2 monoclonal antibody (clone TS1/8), anti-CD2 polyclonal antibody reagent; assay: CSR CD2z mutant surface expression and staining with anti-CD2 antibody reagents in K562 cells; format: binding; conditions: 9 μg mRNA, next day
Procedure: FIG. 23A is a bar graph showing CSR CD2z mutant staining data. A panel of CSR CD2z mutants was designed, constructed, and tested for surface expression and binding to several anti-CD2 antibody reagents. To do so, each mutant was synthesized, subcloned into an in-house mRNA production vector, and then high-quality mRNA was produced for each. K562 cells were electroporated with 9 μg of mRNA, and surface-expression of each molecule was analyzed by flow cytometry the next day and data are shown as bar graphs. Each molecule was stained with anti-CD2 activator reagent, anti-CD2 monoclonal antibody (clone TS1/8), or anti-CD2 polyclonal antibody reagent (goat anti-human CD2).
(§1) FIG. 23C is a summary of staining and degranulation data. Data from surface-expression and binding studies, as well as those from degranulation experiments for each CSR CD2z mutant is summarized in the table.

Allo CAR-T cells = assay: Expansion of Allo CAR-T cells with WT or mutant (D111H) CSR CD2z; format: cell-based, human; conditions: up to 15-day culture; CSR stable or transient
From the text: FIG. 24A is a bar graph showing that the delivery of CSR CD2z-D111H mutant enhances the expansion of Allo CAR-T cells. Pan T cells isolated from healthy donor blood were genetically modified using the piggyBac® DNA modification system in combination with the Cas-CLOVER™ gene-editing system (CC) for the production of allogeneic (Allo) CAR-T cells, or without CC gene-editing, as a control, for the production of autologous (Auto) CAR-T without a CSR (No CSR); auto CAR-T cells were produced by nucleofection of an mRNA encoding the super piggyBac™ transposase enzyme (SPB) and a transposon encoding a CAR, selection gene and a safety switch. […] Following EP, all cells were subsequently stimulated with a cocktail of agonist mAbs anti-CD2, anti-CD3 and anti-CD28, and were later selected for genetic modification over the course of up to a 15-day culture period using the selection gene. At the end of the initial culture period, all T cells expressed the CAR, indicating successful selection for genetically-modified cells (data not shown), and then all non-edited TCR-positive cells were depleted via negative selection to yield a population of Allo CAR-T cells that were >99% TCR-negative (data not shown).

human CD58 = target: T1, human CD58; assay: T cell degranulation (CD107a) against CD58-positive cell targets; format: cell-based; conditions: 4-6 hours coculture, K562 or Rat2 cells with mRNA encoding human CD58
Procedure: FIG. 23B is a series of bar graphs showing CSR CD2z mutant degranulation data. The panel of CSR CD2z mutants was tested for the capability of mediating degranulation against CD58-positive cell targets. T cell degranulation is a surrogate of T cell killing that can be measured by FACS staining for intracellular CD107a expression following coculture with target cell lines expressing target antigen. Specifically, pan T cells from normal blood donors were stimulated with anti-CD3/anti-CD28 beads in standard T cell culture media, then rested. These cells were then electroporated (BTX ECM 830 electroporator @ 500V for 700 μs) with 9 μg of mRNA expressing CSR CD2z mutants and cultured overnight. The next day, the cells were cocultured for 4-6 hours in the presence of various target cell lines. Positive target cell lines included K562 cells or Rat2 cells that were electroporated or lipofected, respectively, with mRNA encoding human CD58, while negative controls were either Rat2 cells that were not electroporated or CSR CD2z mutant expressing T cells alone.
as §1
FIG. 23D is a series of flow cytometry plots showing the expression of CD48, CD58 or CD59 on K562 and Rat2 cells. To confirm possible ligands for the CSR WT CD2z molecule, a panel of known and suspected ligands including human CD48, CD58, and CD59 were tested. Degranulation of engineered T cells was evaluated against the cell lines K562 and Rat2 that were made to overexpress the target ligands and confirmed for expression by FACS staining. Red histograms are unstained cells and blue histograms are cells that were electroporated/lipofected with mRNA and then stained for expression of the respective marker by FACS.
FIG. 23E is a bar graph showing that CSR CD2z recognizes human CD58, but not CD48 or CD59. To confirm possible ligands for the CSR WT CD2z molecule, a panel of known and suspected ligands including human CD48, CD58, and CD59 were tested. Degranulation of engineered T cells was evaluated against the cell lines K562 and Rat2 that were made to overexpress the target ligands and confirmed for expression by FACS staining. Cells were electroporated/lipofected with mRNA and then stained for expression of the respective marker by FACS. As a control, a BCMA CAR was included as well as a K562 cell line overexpressing BCMA. In addition, T cells transfected with GFP were also included as a control. T cell degranulation is a surrogate of T cell killing that can be measured by FACS staining for intracellular CD107a expression following coculture with target cell lines expressing target antigen. Pan T cells from normal blood donors were stimulated with anti-CD3/anti-CD28 beads in standard T cell culture media, then rested. These T cells were then electroporated with mRNA expressing CSR WT CD2z, BCMA CAR, or GFP and cultured overnight. The next day, the cells were cocultured for 4-6 hours in the presence of the various target cell lines that were electroporate/lipofected with mRNA encoding human CD48, CD58 or CD59, while negative controls were either K562 or Rat2 cells that were not electroporated/lipofected, or each of the electroporated T cells alone.

Row | degranulation (CD107a) against CD58 (human CD58) | Molecule | degree of gene editing compared to Allo CAR-T cells produced without a CSR (TCRb and b2M) | surface expression and binding of anti-CD2 staining reagents [1] | peak expansion of Allo CAR-T cells compared to Allo CAR-T cells produced without a CSR (Allo CAR-T cells) | degranulation (CD107a) against CD58 (human CD58; listed as K67R/Y1101D)
1 | Little reactivity | K67R/Y110D: CSR CD2z mutant within the extracellular domain of CD2 (protein) KEITNALETWGALGQDINLDIPSFQMSDDIDDIKWEKTSDKKRIAQFRKEKETFKEKDTYKLFKNGTLKIKHLKTDDQDIYKVSIDDTKGKNVLEKIFDLKIQERVSKPKISWTCINTTLTCEVMNGTDPELNLYQDGKHLKLSQRVITHKWTTSLSAKFKCTAGNKVSKESSVEPVSCPEKGLDIYLIIGICGGGSLLMVFVALLVFYITKRKKQRSRRNDEELETRAHRVATEERGRKPHQIPASTPQNPATSQHPPPPPGHRSQAPSHRPPPPGHRVQHQPQKRPPAPSGTQVHQQKGPPLPRPRVQPKPPHGAAENSLSPSSNRVKFSRSADAPAYKQGQNQLYNELNLGRREEYDVLDKRRGRDPEMGGKPRRKNPQEGLYNELQKDKMAEAYSEIGMKGERRRGKGHDGLYQGLSTATKDTYDALHMQALPPR |  | expressed on the surface and/or retain binding to the anti-CD2 activator reagent |  | do not mediate anti-CD58 degranulation activity
2 | Little reactivity | Delta K106-120: CSR CD2z mutant of the panel (protein) KEITNALETWGALGQDINLDIPSFQMSDDIDDIKWEKTSDKKKIAQFRKEKETFKEKDTYKLFKNGTLKIKHLKTDDQDIYIFDLKIQERVSKPKISWTCINTTLTCEVMNGTDPELNLYQDGKHLKLSQRVITHKWTTSLSAKFKCTAGNKVSKESSVEPVSCPEKGLDIYLIIGICGGGSLLMVFVALLVFYITKRKKQRSRRNDEELETRAHRVATEERGRKPHQIPASTPQNPATSQHPPPPPGHRSQAPSHRPPPPGHRVQHQPQKRPPAPSGTQVHQQKGPPLPRPRVQPKPPHGAAENSLSPSSNRVKFSRSADAPAYKQGQNQLYNELNLGRREEYDVLDKRRGRDPEMGGKPRRKNPQEGLYNELQKDKMAEAYSEIGMKGERRRGKGHDGLYQGLSTATKDTYDALHMQALPPR |  |  |  | 

The remaining lines, values behind:

Row | Molecule | degranulation (CD107a) against CD58 (human CD58) | degree of gene editing compared to Allo CAR-T cells produced without a CSR (TCRb and b2M) | surface expression and binding of anti-CD2 staining reagents [1] | peak expansion of Allo CAR-T cells compared to Allo CAR-T cells produced without a CSR (Allo CAR-T cells) | degranulation (CD107a) against CD58 (human CD58; listed as K67R/Y1101D)
3 | D111H: mutant CSR CD2z with D111H mutation within the CD2 extracellular domain (SEQ ID NO: 17118) (protein) MSFPCKFVASFLLIFNVSSKGAVSKEITNALETWGALGQDINLDIPSFQMSDDIDDIKWEKTSDKKKIAQFRKEKETFKEKDTYKLFKNGTLKIKHLKTDDQDIYKVSIYHTKGKNVLEKIFDLKIQERVSKPKISWTCINTTLTCEVMNGTDPELNLYQDGKHLKLSQRVITHKWTTSLSAKFKCTAGNKVSKESSVEPVSCPEKGLDIYLIIGICGGGSLLMVFVALLVFYITKRKKQRSRRNDEELETRAHRVATEERGRKPHQIPASTPQNPATSQHPPPPPGHRSQAPSHRPPPPGHRVQHQPQKRPPAPSGTQVHQQKGPPLPRPRVQPKPPHGAAENSLSPSSNRVKFSRSADAPAYKQGQNQLYNELNLGRREEYDVLDKRRGRDPEMGGKPRRKNPQEGLYNELQKDKMAEAYSEIGMKGERRRGKGHDGLYQGLSTATKDTYDALHMQALPPR | Little reactivity; also recorded: completely abrogating anti-CD58 degranulation activity | a similar or greater degree of gene editing | strongly bound by all staining reagents | a greater degree of expansion | 
4 | K67R/Q70K/Y110D/D111H: CSR CD2z mutant within the extracellular domain of CD2 (protein) KEITNALETWGALGQDINLDIPSFQMSDDIDDIKWEKTSDKKRIAKFRKEKETFKEKDTYKLFKNGTLKIKHLKTDDQDIYKVSIDHTKGKNVLEKIFDLKIQERVSKPKISWTCINTTLTCEVMNGTDPELNLYQDGKHLKLSQRVITHKWTTSLSAKFKCTAGNKVSKESSVEPVSCPEKGLDIYLIIGICGGGSLLMVFVALLVFYITKRKKQRSRRNDEELETRAHRVATEERGRKPHQIPASTPQNPATSQHPPPPPGHRSQAPSHRPPPPGHRVQHQPQKRPPAPSGTQVHQQKGPPLPRPRVQPKPPHGAAENSLSPSSNRVKFSRSADAPAYKQGQNQLYNELNLGRREEYDVLDKRRGRDPEMGGKPRRKNPQEGLYNELQKDKMAEAYSEIGMKGERRRGKGHDGLYQGLSTATKDTYDALHMQALPPR | Little reactivity |  |  |  | 
